Assay results from article PMC11879086, “Identification and characterization of a human MORC2 DNA binding region that is required for gene silencing” (Nucleic Acids Research, 2024).

Legend:
[1] = biological target: T1, MORC2 dephosphorylated (wild-type) (Homo sapiens, UniProt Q9Y6X9 1-1032); experiment: fluorescence anisotropy; apo; FA/EMSA: 50 mM NaCl, 3 mM MgCl2, 20 mM Na-HEPES pH 7.4, 1 mM TCEP, 10% glycerol, 0.025 mM ZnCl2, 50 ug/ml BSA, room temperature; 1 nM nucleic acid (FA) or 20 nM DNA (EMSA); details: protein: recombinant; tags: tag removed by TEV; chain copies: 2; label: 5'-6-FAM; blunt
T1 sequence: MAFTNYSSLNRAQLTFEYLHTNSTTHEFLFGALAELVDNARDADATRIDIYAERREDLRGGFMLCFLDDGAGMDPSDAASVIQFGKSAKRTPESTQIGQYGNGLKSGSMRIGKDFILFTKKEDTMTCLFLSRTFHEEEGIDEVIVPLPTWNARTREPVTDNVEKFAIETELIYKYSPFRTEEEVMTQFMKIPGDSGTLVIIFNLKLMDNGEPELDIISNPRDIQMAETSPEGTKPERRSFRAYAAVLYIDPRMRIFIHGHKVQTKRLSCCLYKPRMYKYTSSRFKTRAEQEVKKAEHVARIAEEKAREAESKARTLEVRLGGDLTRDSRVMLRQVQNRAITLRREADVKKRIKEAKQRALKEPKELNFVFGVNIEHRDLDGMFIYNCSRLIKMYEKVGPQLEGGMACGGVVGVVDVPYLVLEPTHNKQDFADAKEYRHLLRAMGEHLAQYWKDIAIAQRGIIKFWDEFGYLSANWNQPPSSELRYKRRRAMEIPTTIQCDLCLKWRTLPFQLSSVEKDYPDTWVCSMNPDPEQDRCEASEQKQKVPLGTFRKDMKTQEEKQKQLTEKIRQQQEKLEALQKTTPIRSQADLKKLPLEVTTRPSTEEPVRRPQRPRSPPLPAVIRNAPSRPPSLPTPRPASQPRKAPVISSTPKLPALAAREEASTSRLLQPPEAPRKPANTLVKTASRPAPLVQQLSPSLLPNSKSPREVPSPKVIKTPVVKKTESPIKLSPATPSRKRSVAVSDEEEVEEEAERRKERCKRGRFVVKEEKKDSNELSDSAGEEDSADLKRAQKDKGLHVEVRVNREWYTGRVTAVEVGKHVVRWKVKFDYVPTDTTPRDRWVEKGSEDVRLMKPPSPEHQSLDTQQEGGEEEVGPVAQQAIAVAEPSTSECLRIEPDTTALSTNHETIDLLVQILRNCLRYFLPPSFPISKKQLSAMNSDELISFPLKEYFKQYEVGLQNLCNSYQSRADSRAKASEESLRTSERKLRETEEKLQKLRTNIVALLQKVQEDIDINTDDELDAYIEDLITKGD

[2] = biological target: T2, MORC2 alanine mutant (Homo sapiens, UniProt Q9Y6X9 1-1032, K704A;R707A;K713A;K716A;K721A;K722A;R754A;R755A;K756A;R758A;K760A;R761A); experiment: as above; details: protein: recombinant; tags: tag removed by TEV; chain copies: 2; label: 5'-6-FAM; blunt
T2 sequence: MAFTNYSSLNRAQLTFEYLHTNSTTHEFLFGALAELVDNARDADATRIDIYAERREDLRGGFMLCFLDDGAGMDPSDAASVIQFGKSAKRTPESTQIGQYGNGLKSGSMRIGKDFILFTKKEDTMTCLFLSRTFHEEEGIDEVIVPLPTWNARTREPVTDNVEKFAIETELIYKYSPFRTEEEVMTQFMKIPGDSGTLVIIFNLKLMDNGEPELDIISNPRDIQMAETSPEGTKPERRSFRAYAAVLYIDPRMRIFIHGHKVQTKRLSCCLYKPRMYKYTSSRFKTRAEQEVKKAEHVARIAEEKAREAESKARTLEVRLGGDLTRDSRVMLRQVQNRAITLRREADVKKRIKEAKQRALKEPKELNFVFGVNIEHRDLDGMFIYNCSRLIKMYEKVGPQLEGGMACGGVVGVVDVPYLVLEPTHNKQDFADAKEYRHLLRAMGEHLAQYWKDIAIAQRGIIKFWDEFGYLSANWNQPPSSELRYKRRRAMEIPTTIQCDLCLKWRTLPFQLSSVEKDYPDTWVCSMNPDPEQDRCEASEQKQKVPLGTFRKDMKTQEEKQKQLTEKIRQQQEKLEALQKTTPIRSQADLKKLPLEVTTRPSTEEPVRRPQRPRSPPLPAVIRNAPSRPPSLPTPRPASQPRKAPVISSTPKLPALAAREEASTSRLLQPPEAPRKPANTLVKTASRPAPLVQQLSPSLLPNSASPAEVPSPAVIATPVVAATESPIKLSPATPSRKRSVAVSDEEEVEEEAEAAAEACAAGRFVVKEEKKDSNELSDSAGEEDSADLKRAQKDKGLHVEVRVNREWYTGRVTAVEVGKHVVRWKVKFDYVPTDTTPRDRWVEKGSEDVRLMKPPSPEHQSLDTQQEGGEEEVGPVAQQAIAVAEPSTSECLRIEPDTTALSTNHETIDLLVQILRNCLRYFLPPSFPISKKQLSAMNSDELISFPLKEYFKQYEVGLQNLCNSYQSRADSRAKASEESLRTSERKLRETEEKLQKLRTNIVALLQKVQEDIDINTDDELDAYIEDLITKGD

B1: Random 35mer dsDNA (dsDNA)
DNA 1: ATAGGGTCCATCAGAATTCGGATGAACTCGGTGTG
DNA 2: CACACCGAGTTCATCCGAATTCTGATGGACCCTAT
Question: B1 was tested. Which Kd [1] did it give?
Answer: 17 ± 4 nM

Question: What about the Kd [2] of the same binder?
Answer: 350 ± 60 nM
